We go through three molecules from US20260098096A1 (MONASH UNIVERSITY, published 2026).

For one assay, the target named is T1, Human CCR8 (human, UniProt P51685 1-355).
T1 construct: Expressed on transfected CHO-Flpn or L1.2 cells; also called hCCR8; C-C chemokine receptor type 8
Kind of assay: flow cytometry on hCCR8-L1.2 transfected cells.

Another assay concerns the target T2, human CCR7 (human, UniProt P32248 25-378).
T2 construct: whole, on cells
T2 sequence (looked up): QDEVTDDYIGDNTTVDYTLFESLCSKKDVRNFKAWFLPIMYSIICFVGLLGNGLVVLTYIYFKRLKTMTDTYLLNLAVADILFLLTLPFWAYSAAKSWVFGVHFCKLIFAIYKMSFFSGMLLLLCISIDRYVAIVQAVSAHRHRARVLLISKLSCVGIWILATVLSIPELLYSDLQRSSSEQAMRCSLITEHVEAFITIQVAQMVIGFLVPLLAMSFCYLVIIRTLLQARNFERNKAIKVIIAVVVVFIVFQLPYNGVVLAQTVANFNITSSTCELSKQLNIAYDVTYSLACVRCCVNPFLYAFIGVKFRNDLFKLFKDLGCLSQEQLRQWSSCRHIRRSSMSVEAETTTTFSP
Kind of assay: flow cytometry on transfected L1.2 cells. For orientation: A flow cytometer gives signals particle by particle.

The target of another assay is T3, human CCR3 (human, UniProt P51677 1-355).
T3 construct: whole, on cells
T3 sequence (looked up): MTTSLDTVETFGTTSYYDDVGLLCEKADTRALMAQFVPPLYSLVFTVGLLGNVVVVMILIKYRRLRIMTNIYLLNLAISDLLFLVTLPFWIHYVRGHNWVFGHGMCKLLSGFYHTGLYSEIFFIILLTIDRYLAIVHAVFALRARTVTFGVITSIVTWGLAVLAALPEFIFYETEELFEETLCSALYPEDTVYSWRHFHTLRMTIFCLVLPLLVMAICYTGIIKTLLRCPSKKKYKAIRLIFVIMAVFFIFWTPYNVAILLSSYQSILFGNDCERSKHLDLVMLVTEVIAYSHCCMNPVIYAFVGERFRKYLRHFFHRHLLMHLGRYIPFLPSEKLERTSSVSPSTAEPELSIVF
Kind of assay: flow cytometry on transfected L1.2 cells.

For a further assay, the target named is T4, human CCR6 (human, UniProt P51684 1-374).
T4 construct: whole, on cells
T4 sequence (looked up): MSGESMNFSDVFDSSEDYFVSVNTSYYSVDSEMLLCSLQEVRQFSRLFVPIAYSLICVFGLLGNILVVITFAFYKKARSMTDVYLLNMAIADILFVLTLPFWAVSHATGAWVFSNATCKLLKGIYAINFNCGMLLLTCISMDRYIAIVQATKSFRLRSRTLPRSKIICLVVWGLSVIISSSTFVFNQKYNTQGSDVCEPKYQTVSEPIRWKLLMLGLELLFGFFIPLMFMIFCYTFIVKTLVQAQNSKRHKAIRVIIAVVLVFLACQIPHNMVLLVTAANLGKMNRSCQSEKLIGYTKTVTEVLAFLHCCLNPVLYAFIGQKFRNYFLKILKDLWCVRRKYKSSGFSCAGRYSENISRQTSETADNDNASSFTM
Kind of assay: flow cytometry on transfected L1.2 cells.

The target in another assay is T5, human CCR10 (human, UniProt P46092 1-362).
T5 construct: whole, on cells
T5 sequence (looked up): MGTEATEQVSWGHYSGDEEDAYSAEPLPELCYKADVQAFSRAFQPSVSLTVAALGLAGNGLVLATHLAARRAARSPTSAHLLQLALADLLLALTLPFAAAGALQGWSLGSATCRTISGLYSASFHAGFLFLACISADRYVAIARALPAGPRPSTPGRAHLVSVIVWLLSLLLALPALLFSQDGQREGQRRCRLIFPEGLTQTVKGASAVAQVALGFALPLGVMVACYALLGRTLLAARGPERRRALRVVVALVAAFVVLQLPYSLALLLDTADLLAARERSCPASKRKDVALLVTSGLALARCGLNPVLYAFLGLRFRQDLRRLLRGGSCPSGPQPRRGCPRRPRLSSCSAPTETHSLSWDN
Kind of assay: flow cytometry on transfected L1.2 cells.

In a further assay the target is T6, Mouse CCR8 (mouse, UniProt P56484 1-353).
T6 construct: Expressed on transfected CHO-Flpn or L1.2 cells; also called mCCR8
T6 sequence: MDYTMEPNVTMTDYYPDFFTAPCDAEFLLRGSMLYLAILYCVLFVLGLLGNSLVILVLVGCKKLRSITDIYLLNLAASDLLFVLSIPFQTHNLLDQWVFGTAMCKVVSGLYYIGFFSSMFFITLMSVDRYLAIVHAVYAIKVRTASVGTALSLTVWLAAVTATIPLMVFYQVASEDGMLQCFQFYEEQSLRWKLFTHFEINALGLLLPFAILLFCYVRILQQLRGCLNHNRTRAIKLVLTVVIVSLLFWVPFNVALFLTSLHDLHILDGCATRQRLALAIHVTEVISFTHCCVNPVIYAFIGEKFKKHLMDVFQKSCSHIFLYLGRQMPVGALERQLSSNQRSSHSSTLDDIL
Kind of assay: flow cytometry on transfected CHO-Flpn cells.

For a further assay, the target named is T7, hCCR8_174-175 VA-AG (human, UniProt P51685 1-355).
T7 construct: also called Mut 174-175
T7 sequence (P51685 whole entry V174A/A175G): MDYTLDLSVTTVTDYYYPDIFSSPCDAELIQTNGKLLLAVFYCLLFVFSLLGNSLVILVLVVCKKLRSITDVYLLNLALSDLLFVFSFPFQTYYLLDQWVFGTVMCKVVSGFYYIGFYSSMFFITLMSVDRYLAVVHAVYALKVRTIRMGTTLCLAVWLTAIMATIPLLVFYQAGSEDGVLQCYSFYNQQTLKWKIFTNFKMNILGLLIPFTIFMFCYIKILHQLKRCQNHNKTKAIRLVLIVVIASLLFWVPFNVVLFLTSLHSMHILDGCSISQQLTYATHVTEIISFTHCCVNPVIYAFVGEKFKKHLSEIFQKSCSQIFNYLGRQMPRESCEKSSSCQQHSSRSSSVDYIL
Kind of assay: epitope mapping on transfected cells.

A further assay deals with T8, hCCR8_172-173 YQ-AA (human, UniProt P51685 1-355).
T8 construct: also called Mut 172-173
T8 sequence (P51685 whole entry Y172A/Q173A): as the sequence (P51685 whole entry V174A/A175G) above, with Y172A, Q173A, A174V, G175A counted along it
Kind of assay: epitope mapping on transfected cells.

The target of another assay is T9, Cynomolgus CCR8 (cynomolgus monkey, UniProt O97665 1-356 (rhesus entry)).
T9 construct: also called cyno CCR8; cynomolgus monkey CCR8
T9 sequence (O97665 other isoform, or with tags, fused parts or gaps): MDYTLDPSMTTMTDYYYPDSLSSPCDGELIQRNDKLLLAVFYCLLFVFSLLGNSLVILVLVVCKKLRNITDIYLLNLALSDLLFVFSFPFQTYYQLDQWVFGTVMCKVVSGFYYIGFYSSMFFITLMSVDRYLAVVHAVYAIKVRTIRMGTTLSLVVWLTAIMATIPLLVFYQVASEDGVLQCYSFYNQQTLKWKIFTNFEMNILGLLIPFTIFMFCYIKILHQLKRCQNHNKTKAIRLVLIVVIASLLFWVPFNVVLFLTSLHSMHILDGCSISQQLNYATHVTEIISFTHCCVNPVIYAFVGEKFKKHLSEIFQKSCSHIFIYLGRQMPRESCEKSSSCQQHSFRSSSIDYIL
Kind of assay: flow cytometry on HEK293T cells transfected with cyno CCR8. An excerpt:
FIG. 2. Reactivity of 2H8 antibody and other anti-hCCR8 antibodies towards Cyno CCR8. HEK293T cells were transfected with plasmid coding for cynomolgus monkey CCR8 and stained with various anti-hCCR8 antibodies (blue) or isotype control (red).

By EC50 is commonly meant the concentration giving half of the maximal effect. A low value points to a more potent agent.

T1 sequence (P51685 whole entry): as the sequence (P51685 whole entry V174A/A175G) above, with A174V, G175A counted along it

B1: Chimeric 2H8 (antibody, human IgG1, kappa, V domains shown)
VH: EVQLQQSGPELVKPGASVKMSCKASGYTFTDYNMHWVKQSHGKSLEWIGYVNPNNGGTSYNQKFKGKATLTVNKSSSTAYMELRSLTSEDSAVYYCARWVLRRNFAYWGQGTLVTVSA
VL: DIVMTQSHKFMSTSVGDRVSITCKASQDVNTAVAWYQQKPGQSPKLLIYWASTRHTGVPDRFTGSGSGTDYTLTISSVQAEDLALYYCQQHYRNPYTFGGGTKLEIKR
notes: also called Chimeric 2H8-B4; chimeric 2H8 B4 (parental)
B1 gave an EC50 with Human CCR8 of 2.1 nM.

B2: 2H8 anti-m/hCCR8 antibody (mouse hybridoma clone, isotype IgG2b) (antibody, V domains shown)
VH: B1 VH
VL: DIVMTQSHKFMSTSVGDRVSITCKASQDVNTAVAWYQQKPGQSPKLLIYWASTRHTGVPDRFTGSGSGTDYTLTISSVQAEDLALYYCQQHYRNPYTFGGGTKLEIK
notes: Murine antibody from a mouse immunised with mouse CCR8 L1.2 cells; the mouse constant regions are not; also called 2H8-B4
Take B2: the binding result with human CCR7 was “no binding”; with human CCR3, “no binding”; with human CCR6, “no binding”; with human CCR10 it was “no binding”; with Mouse CCR8, “binds”; with hCCR8_174-175 VA-AG, “binds”. Also, the binding result with hCCR8_172-173 YQ-AA and with Cynomolgus CCR8 was “binds” in each case.

B3: Humanised 2H8 (antibody, V domains shown)
VH: QVQLVQSGAEVKKPGASVKVSCKASGYTFTDYNMHWVRQAPGQGLEWIGYVNPNNGGTSYNQKFKGKATLTVDKSISTAYMELSRLRSDDTAVYYCARWVLRRNFAYWGQGTLVTVSS
VL: DIQMTQSPSSLSASVGDRVTITCKASQDVNTAVAWYQQKPGKAPKLLIYWASTRHTGVPSRFSGSGSGTDFTLTISSLQPEDFATYYCQQHYRNPYTFGQGTKLEIK
notes: also called Humanized 2H8-B4; h2H8
For the molecule B3, the EC50 with Human CCR8 was 2.1 nM.
